Results on two substances are retold here after US20040018515.

Mek 6: the “initial rate of fluorescence increase (535 nm) of the ADP NASM FRET assay, reporting ADP yield from ATP hydrolysis” value in the data set on p386 was “substantially enhanced fluorescence was observed (Table 17, shaded cells; 150-300 RFU/min)”.
Regarding Mek1, the “initial rate of fluorescence increase (535 nm) of the ADP NASM FRET assay, reporting ADP yield from ATP hydrolysis” value with Erk2 was “substantially enhanced fluorescence was observed (Table 17, shaded cells; 150-300 RFU/min)”.
